Results taken from patent publication US20250188161A1 (UNIVERSITE CATHOLIQUE DE LOUVAIN, published 2025).
Where “and” joins values, the source holds several entries; their conditions need not be identical. Equal values may be shown once.

Key:
V203A = molecular target: T1, V203A; assay: Ala-scan, flow cytometry, HEK-293T cells with GARP and the HA-tagged Ala-mutant; residual binding in % of WT
T1 construct: co-expressed with GARP; also called mouse TGF-β1 V203A single Ala-mutant on HEK-293T cells
Description: (§1) To perform “Ala-scan” analyses, we co-transfected plasmids encoding mouse or human GARP and the single Ala-mutants of mouse or human TGF-β1 in HEK-293T cells, and analyzed binding by TGF-β1-activating and non-activating mAbs using flow cytometry (FIG. 3C).

R205A = molecular target: T2, R205A; assay: as above
T2 construct: co-expressed with GARP; also called mouse TGF-β1 R205A single Ala-mutant on HEK-293T cells
T2 sequence (HA-tagged latent TGF-β1, as listed by the source R205A R205A limits assumed): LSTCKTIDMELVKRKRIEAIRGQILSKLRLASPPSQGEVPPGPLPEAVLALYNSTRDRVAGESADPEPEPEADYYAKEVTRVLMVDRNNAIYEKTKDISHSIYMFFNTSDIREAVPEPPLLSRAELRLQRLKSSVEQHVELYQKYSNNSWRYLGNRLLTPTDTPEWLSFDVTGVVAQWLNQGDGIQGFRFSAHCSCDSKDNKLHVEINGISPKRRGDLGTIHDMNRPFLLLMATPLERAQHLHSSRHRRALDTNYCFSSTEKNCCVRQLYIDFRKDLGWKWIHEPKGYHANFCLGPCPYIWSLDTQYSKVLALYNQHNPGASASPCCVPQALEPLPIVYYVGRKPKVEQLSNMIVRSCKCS
Description: as §1

G213A = molecular target: T3, G213A; assay: as above
T3 construct: co-expressed with GARP; also called mouse TGF-β1 G213A single Ala-mutant on HEK-293T cells
Description: as §1

I214A = molecular target: T4, I214A; assay: as above
T4 construct: co-expressed with GARP; also called mouse TGF-β1 I214A single Ala-mutant on HEK-293T cells
T4 sequence (HA-tagged latent TGF-β1, as listed by the source I214A I214A limits assumed): as the sequence (HA-tagged latent TGF-β1, as listed by the source R205A R205A limits assumed) above, with A176R, I185A counted along it
Description: as §1

F217A = molecular target: T5, F217A; assay: as above
T5 construct: co-expressed with GARP; also called mouse TGF-β1 F217A single Ala-mutant on HEK-293T cells
T5 sequence (HA-tagged latent TGF-β1, as listed by the source F217A F217A limits assumed): as the sequence (HA-tagged latent TGF-β1, as listed by the source R205A R205A limits assumed) above, with A176R, F188A counted along it
Description: as §1

S220A = molecular target: T6, S220A; assay: as above
T6 construct: co-expressed with GARP; also called mouse TGF-β1 S220A single Ala-mutant on HEK-293T cells
Description: as §1

W207A = molecular target: T7, W207A; assay: as above
T7 construct: co-expressed with GARP; also called mouse TGF-β1 W207A single Ala-mutant on HEK-293T cells
T7 sequence (HA-tagged latent TGF-β1, as listed by the source W207A W207A limits assumed): as the sequence (HA-tagged latent TGF-β1, as listed by the source R205A R205A limits assumed) above, with A176R, W178A counted along it
Description: as §1

Q210A = molecular target: T8, Q210A; assay: as above
T8 construct: co-expressed with GARP; also called mouse TGF-β1 Q210A single Ala-mutant on HEK-293T cells
Description: as §1

N209A = molecular target: T9, N209A; assay: as above
T9 construct: co-expressed with GARP; also called mouse TGF-β1 N209A single Ala-mutant on HEK-293T cells
T9 sequence (HA-tagged latent TGF-β1, as listed by the source N209A N209A limits assumed): as the sequence (HA-tagged latent TGF-β1, as listed by the source R205A R205A limits assumed) above, with A176R, N180A counted along it
Description: as §1

F219A = molecular target: T10, F219A; assay: as above
T10 construct: co-expressed with GARP; also called mouse TGF-β1 F219A single Ala-mutant on HEK-293T cells
Description: as §1

Q215A = molecular target: T11, Q215A; assay: as above
T11 construct: co-expressed with GARP; also called mouse TGF-β1 Q215A single Ala-mutant on HEK-293T cells
T11 sequence (HA-tagged latent TGF-β1, as listed by the source Q215A Q215A limits assumed): as the sequence (HA-tagged latent TGF-β1, as listed by the source R205A R205A limits assumed) above, with A176R, Q186A counted along it
Description: as §1

V204A = molecular target: T12, V204A; assay: as above
T12 construct: co-expressed with GARP; also called mouse TGF-β1 V204A single Ala-mutant on HEK-293T cells
T12 sequence (HA-tagged latent TGF-β1, as listed by the source V204A V204A limits assumed): as the sequence (HA-tagged latent TGF-β1, as listed by the source R205A R205A limits assumed) above, with V175A, A176R counted along it
Description: as §1

T201A = molecular target: T13, T201A; assay: as above
T13 construct: co-expressed with GARP; also called mouse TGF-β1 T201A single Ala-mutant on HEK-293T cells
Description: as §1

R218A = molecular target: T14, R218A; assay: as above
T14 construct: co-expressed with GARP; also called mouse TGF-β1 R218A single Ala-mutant on HEK-293T cells
Description: as §1

G211A = molecular target: T15, G211A; assay: as above
T15 construct: co-expressed with GARP; also called mouse TGF-β1 G211A single Ala-mutant on HEK-293T cells
T15 sequence (HA-tagged latent TGF-β1, as listed by the source G211A G211A limits assumed): as the sequence (HA-tagged latent TGF-β1, as listed by the source R205A R205A limits assumed) above, with A176R, G182A counted along it
Description: as §1

G216A = molecular target: T16, G216A; assay: as above
T16 construct: co-expressed with GARP; also called mouse TGF-β1 G216A single Ala-mutant on HEK-293T cells
Description: as §1

Q206A = molecular target: T17, Q206A; assay: as above
T17 construct: co-expressed with GARP; also called mouse TGF-β1 Q206A single Ala-mutant on HEK-293T cells
T17 sequence (HA-tagged latent TGF-β1, as listed by the source Q206A Q206A limits assumed): as the sequence (HA-tagged latent TGF-β1, as listed by the source R205A R205A limits assumed) above, with A176R, Q177A counted along it
Description: as §1

G202A = molecular target: T18, G202A; assay: as above
T18 construct: co-expressed with GARP; also called mouse TGF-β1 G202A single Ala-mutant on HEK-293T cells
T18 sequence (HA-tagged latent TGF-β1, as listed by the source G202A G202A limits assumed): as the sequence (HA-tagged latent TGF-β1, as listed by the source R205A R205A limits assumed) above, with G173A, A176R counted along it
Description: as §1

[1] = molecular target: mouse TGF-β1 L208A single Ala-mutant on HEK-293T cells (mouse, UniProt P04202 30-278; P04202 279-390); assay: Ala-scan, flow cytometry on HEK-293T cells with mouse GARP and HA-tagged single Ala-mutant
Sequence of mouse TGF-β1 L208A single Ala-mutant on HEK-293T cells (P04202 30-278 L208A, chain 1 of 2): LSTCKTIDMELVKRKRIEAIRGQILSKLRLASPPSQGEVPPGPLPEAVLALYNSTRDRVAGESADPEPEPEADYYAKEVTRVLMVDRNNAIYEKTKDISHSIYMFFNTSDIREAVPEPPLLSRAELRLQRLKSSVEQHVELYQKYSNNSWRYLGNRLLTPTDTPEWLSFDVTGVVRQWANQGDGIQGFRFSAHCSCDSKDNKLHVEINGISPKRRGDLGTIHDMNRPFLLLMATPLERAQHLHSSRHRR
Sequence of mouse TGF-β1 L208A single Ala-mutant on HEK-293T cells (P04202 279-390, chain 2 of 2): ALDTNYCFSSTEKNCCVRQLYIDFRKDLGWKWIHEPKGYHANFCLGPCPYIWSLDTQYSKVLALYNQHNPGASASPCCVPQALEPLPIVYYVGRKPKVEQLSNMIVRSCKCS
Description: as §1

[2] = molecular target: mouse TGF-β1 D212A single Ala-mutant on HEK-293T cells (mouse, UniProt P04202 30-278; P04202 279-390); assay: as above
Description: as §1

mouse latent TGF-β1 = molecular target: T19, mouse latent TGF-β1 (mouse, UniProt P04202 30-278; P04202 279-390); assay: SPR (Biacore 3000), mouse latent TGFβ1 amine-coupled on CM5 (about 500 RU), antibody at 3-100 nM
T19 construct: signal peptide 1-29 left out; also called murine latent TGF-β1 (immobilised protein)
T19 sequence (P04202 30-278, chain 1 of 2): as the sequence (P04202 30-278 L208A, chain 1 of 2) above, with A179L counted along it
T19 sequence (P04202 279-390, chain 2 of 2): as the sequence (P04202 279-390, chain 2 of 2) above
Experimental: A CM5 chip was immobilized with approximately 500RU human latent TGFβ1 and mouse latent TGFβ1 in sodium acetate buffer pH4.5 (GE Healthcare, #BR100350) using amine coupling and consuming HBS-EP buffer. The flow was set to 30 μl/min with the “kinject” injection mode and a regeneration injection of 10 mM glycine pH1.5.

[3] = molecular target: T20, mouse latent TGF-β1 on transfected HEK-293T cells (mouse, UniProt P04202 30-278; P04202 279-390); assay: cell-based or functional assay
T20 sequence (P04202 30-278, chain 1 of 2): as the sequence (P04202 30-278 L208A, chain 1 of 2) above, with A179L counted along it
T20 sequence (P04202 279-390, chain 2 of 2): as the sequence (P04202 279-390, chain 2 of 2) above

[4] = molecular target: T20, mouse latent TGF-β1 on transfected …; assay: flow cytometry, HEK-293T cells co-transfected with mGarp and the HA-tagged TGF-β1 construct
human latent TGF-β1 = molecular target: T21, human latent TGF-β1 (human, UniProt P01137 30-278; P01137 279-390); assay: SPR (Biacore 3000), human latent TGFβ1 amine-coupled on CM5, antibody injected
T21 construct: signal peptide 1-29 left out; also called human latent TGF-β1 (immobilised / coated protein)

[5] = molecular target: T22, mouse latent TGF-β3 on transfected 293T cells (mouse, UniProt P17125 24-410); assay: flow cytometry, 293T cells transfected with GARP and HA-TGF-β3, GAM-FITC as secondary reagent; anti-HA staining gives only a low tail
T22 construct: whole, on cells; also called murine latent TGF-β3; HA-tagged TGF-β3
T22 sequence (looked up): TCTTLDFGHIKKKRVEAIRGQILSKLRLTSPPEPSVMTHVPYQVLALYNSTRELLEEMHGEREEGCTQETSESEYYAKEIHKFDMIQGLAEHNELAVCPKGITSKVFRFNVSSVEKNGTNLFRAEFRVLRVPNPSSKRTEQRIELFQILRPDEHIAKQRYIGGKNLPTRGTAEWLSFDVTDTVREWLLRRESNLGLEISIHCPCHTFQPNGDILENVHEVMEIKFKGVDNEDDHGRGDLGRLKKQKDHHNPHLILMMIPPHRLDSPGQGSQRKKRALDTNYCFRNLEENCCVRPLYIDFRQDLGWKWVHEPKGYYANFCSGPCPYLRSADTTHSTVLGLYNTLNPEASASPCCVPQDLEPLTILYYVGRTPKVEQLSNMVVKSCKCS
Description: (§2) Flow cytometry was used to ensure that LMT-12 binds specifically to mouse latent TGF-β1 and not to mouse latent TGF-β2 and mouse latent TGF-β3. Briefly, 293T cells were transfected with plasmids encoding HA-tagged TGF-β1, β2, or β3, with a plasmid encoding GARP. They were then stained with the indicated concentrations of LMT-12 mIgG1 or anti-HA mIgG1 antibody and thereafter with goat anti-mouse coupled to FITC (GAM-FITC) as secondary reagent. Using flow cytometry, histograms were gated on live cells as determined with a viability dye (Bioscience, cat. 65-0865-14).

[6] = molecular target: T23, mouse latent TGF-β2 on transfected 293T cells (mouse, UniProt P27090 21-414); assay: flow cytometry, 293T cells transfected with GARP and HA-TGF-β2, GAM-FITC as secondary reagent; expression shown by anti-HA staining
T23 construct: whole, on cells; also called murine latent TGF-β2; HA-tagged TGF-β2
T23 sequence (looked up): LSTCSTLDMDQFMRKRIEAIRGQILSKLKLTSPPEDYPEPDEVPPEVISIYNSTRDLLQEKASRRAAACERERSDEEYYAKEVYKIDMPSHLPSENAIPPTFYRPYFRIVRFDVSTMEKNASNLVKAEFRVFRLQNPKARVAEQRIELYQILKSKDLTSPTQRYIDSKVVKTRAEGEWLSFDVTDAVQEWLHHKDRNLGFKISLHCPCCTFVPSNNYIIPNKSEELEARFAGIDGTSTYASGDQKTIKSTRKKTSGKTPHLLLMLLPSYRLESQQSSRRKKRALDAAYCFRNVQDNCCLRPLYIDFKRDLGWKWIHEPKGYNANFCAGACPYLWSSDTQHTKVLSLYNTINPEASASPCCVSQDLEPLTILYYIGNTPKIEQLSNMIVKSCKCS
Description: as §2

B1: LMT-2 (6D12) (antibody, V domains shown)
VH: EVQLVESGGGLVQPGGSLRLSCAASGFTFSNYGVHWVRQAPGKGLEWVSHISAAGISRYYADAVKGRFTMSRDNGKNTLYLQMNGLKSEDTAVYYCAKDRIRSSYEYDSWGQGTQVTVSS
VL: LPVLTQLSSMSGSPGQTVTITCTGSSSNIGGGYYLSWYQQLPGTAPKLLIYNANNRASGVPNRFSGSKSGNLASLTITGLQAEDEADYYCGCYDSSLSTGYVFGGGTKLTVL
notes: also called LMT-2 (hIgG1)
V203A
  binding result: binds
R205A
  binding result: binds
G213A
  binding result: binds
I214A
  binding result: binds
F217A
  binding result: binds
S220A
  binding result: binds
W207A
  binding result: binds
Q210A
  binding result: binds
N209A
  binding result: binds
F219A
  binding result: binds
Q215A
  binding result: binds
V204A
  binding result: binds
T201A
  binding result: binds
R218A
  binding result: binds
G211A
  binding result: binds
G216A
  binding result: binds
Q206A
  binding result: binds
G202A
  binding result: binds
[1]
  binding result: no binding
[2]
  binding result: no binding
Mouse latent TGF-β1
  Amplitude R0 (RU): 241 RU
  Kd: 0.633 nM
  koff: 0.000718 s⁻¹
  kon: 1.14e+06 M⁻¹ s⁻¹
[3]
  EC50, TGF-β1 luciferase reporter assay in HEK-293T cells expressing GARP:TGF-β1: 76 ng/ml and 0.5 nM
[4]
  % binding relative to WT TGF-β1 (100 %): 100%
Human latent TGF-β1
  binding result: no binding (tested: six concentrations, 3 nM to 100 nM)

B2: LMT-12 mIgG1 (antibody, V domains shown)
VH: EVQLVESGGGLVQPGGSLRLSCAASGFTFSSYYMYWVRQAPGKGLEWVSGTSIGGGSTWYADSVKGRFTISRDNAKNTLYLQMNNLKSEDTAVYYCAKDLNSRSYKGMGDWGQGTQVTVSS
VL: QPALTQLSSMSGSPGQTVTITCTGSSSNIGGGYYLNWYQQLPGAAPKLVIYNANNRASGVPDRFSGSKSGNLASLTITGLQAEDEAVYFCGCYDSSLSSVVFGGGTHLTVL
notes: also called mAb LMT-12
[5]
  binding result: no binding (tested: 20.00 µg/ml)
[6]
  binding result: no binding (tested: 20.00 µg/ml)
